# Laboratory results reported in patent publication US20250066446A1, “FUSION PROTEINS FOR THE TREATMENT OF CARDIOMETABOLIC DISEASES” (Shattuck Labs, Inc., priority 2022, published 2025).
# T1: recombinant human Activin A (Homo sapiens, UniProt P08476)
# T1 sequence (P08476 311-426): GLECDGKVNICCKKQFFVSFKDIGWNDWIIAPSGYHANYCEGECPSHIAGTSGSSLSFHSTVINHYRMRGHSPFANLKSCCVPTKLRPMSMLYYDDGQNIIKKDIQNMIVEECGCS
# T2: recombinant human GDF-8 (Homo sapiens, UniProt O14793)
# T2 sequence (O14793 267-375): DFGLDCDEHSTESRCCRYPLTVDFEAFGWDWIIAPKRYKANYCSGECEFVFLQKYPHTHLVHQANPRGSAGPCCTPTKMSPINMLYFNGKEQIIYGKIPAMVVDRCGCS
# B1: GLP-1-Fc-ACVR2B chimeric protein: GLP-1 fused to ACVR2B extracellular domain via a hinge-CH2-CH3 Fc domain derived from IgG1; SEQ ID NO: 154 (protein)
# chain: SGRGEAETRECIYYNANWELERTNQSGLERCEGEQDKRLHCYASWRNSSGTIELVKKGCWLDDFNCYDRQECVATEENPQVYFCCCEGNFCNERFTHLPEAGGPEVTYEPPPTAPTLLT
# Experiments:
# [1] = molecular target: T1, recombinant human Activin A; assay: MSD platform-based binding assay to plate-bound Activin A; settings: 3× serial dilutions of culture supernatants of HEK293T cells transfected with mmRNA constructs
# Method: The binding by a recombinant human ACVR2B-Fc fusion protein to activin A (also known as Inhibin beta A) was characterized using a Meso Scale Discovery (MSD) platform-based assay. Briefly, Activin A was coated on a plate and 8× serial dilutions of the purified recombinant human ACVR2B-Fc fusion protein were also added in a series of wells. The protein captured by the plate-bound Activin A was detected using an anti-human Fc antibody and a SULFO-TAG conjugated secondary antibody.
# (§1) The binding to Activin A by the GLP-1-Fc-ACVR2B fusion protein produced using the mmRNA constructs was investigated using a Meso Scale Discovery (MSD) platform-based assay. Briefly, HEK293T cells were transfected with each mRNA construct using lipofectamine 2000, and culture supernatants were collected after 48 hours. Activin A was coated on a plate, and 3× serial dilutions of the culture supernatants were added to the plate for capture by the plate-bound Activin A. The protein captured by the plate-bound Activin A was detected using an anti-human Fc antibody and a SULFO-TAG conjugated secondary antibody. The MSD signals generated by the culture supernatants of HEK293T cells transfected with different mmRNA constructs were plotted as a line graph.
# recombinant human GDF-8 = molecular target: T2, recombinant human GDF-8; assay: MSD platform-based binding assay to plate-bound GDF-8; settings: 3× serial dilutions of culture supernatants of HEK293T cells transfected with mmRNA constructs
# Method: The binding by a recombinant human ACVR2B-Fc fusion protein to GDF-8 (also known as myostatin) was characterized using a Meso Scale Discovery (MSD) platform-based assay. Briefly, GDF-8 was coated on a plate and 8× serial dilutions of the purified recombinant human ACVR2B-Fc fusion protein were also added in a series of wells. The protein captured by the plate-bound GDF-8 was detected using an anti-human Fc antibody and a SULFO-TAG conjugated secondary antibody.
# as §1, with “GDF-8” for “Activin A”, “GDF-8.” for “Activin A.”
molecule,measurement,setting,value
B1,binding to Activin A,[1],binds to the human Activin A
same,binding to GDF-8,recombinant human GDF-8,binds to the human GDF-8
